Results published in patent US20240361320A1.

Target: SARS-CoV-2 3CL^pro enzyme (Recombinant derived from Escherichia coli, ab277614, ABCAM; SEQ ID NO:2) (SARS-CoV-2) (UniProt P0DTC1)

Question: For “3CL^pro specific antibody (Rabbit-derived, NBP3-07062, Novus Biologicals; binding to SEQ ID NO:3)”, which time to maximal binding is on record?
Answer: 20 s
